In patent US20260201347A1, “ARTIFICIAL BIFUNCTIONAL ENZYME COMPRISING A MYELOPEROXIDASE ACTIVITY AND A GLUCOSE OXIDASE ACTIVITY AND APPLICATIONS THEREOF” (UNIVERSITÉ DE BORDEAUX, priority 2022, published 2026):
“And” between values parts separate entries of the source, which are not always exact repeats. Equal entries are not always repeated.

Tests used:
Format in all cases: biochemical, Rhodopirellula baltica / Penicillium amagasakiens
[1] = substrate: OC[C@H]1OC(O)[C@H](O)[C@@H](O)[C@@H]1O; test: Coupled active sites, HOCl production from glucose, APF assay (Table 9), linker LEKREAEA; details: other: trimer; fixed NaCl 20 mM, pH7.5; pH 7.5
Method: (§1) Each experiment was performed in triplicate.
(§2) The activity of the two active sites was then assessed in conjunction to each other (FIG. 1).
(§3) Briefly, the aim was to measure the production of HOCl from glucose and NaCl as respective substrates of the enzymes, using the APF probe. Two types of kinetics were performed: • i) kinetics at various concentrations of glucose and a fixed concentration of NaCl, and • ii) kinetics at various concentration of NaCl and a fixed concentration of glucose.

[2] = substrate: OC[C@H]1OC(O)[C@H](O)[C@@H](O)[C@@H]1O; test: Coupled active sites, HOCl production from glucose, APF assay (Table 9), linker LGKRGAGA; details: fixed NaCl 20 mM, pH7.5, pH 7.5
Method: as §1, §2, §3

[3] = substrate: OC[C@H]1OC(O)[C@H](O)[C@@H](O)[C@@H]1O; test: Coupled active sites, HOCl production from glucose, APF assay (Table 9), linker LEKREAEALEKREAEA; details: fixed NaCl 20 mM, pH7.5, pH 7.5
Method: as §1, §2, §3

[4] = substrate: OC[C@H]1OC(O)[C@H](O)[C@@H](O)[C@@H]1O; test: Coupled active sites, HOCl production from glucose, all other chimeras; details: glucose as substrate, pH 7.5
Method: as §1, §2, §3

B1: RbMPO-LEKREAEA-GOx chimera (Rhodopirellula baltica myeloperoxidase, SEQ ID NO: 10; linker SEQ ID NO: 7; Penicillium amagasakiens glucose oxidase, SEQ ID NO: … (protein)
chain: MLFWSKRTRKHPGRKRRRLRSEQLESRQLLAADFGGYRHNIYDAEDVNDDGRVSAIDALLVINAMTSETSRDENVFTDVNGDGRRSALDALRVINRIERGDVFPIDTSGDEDLNTLLPEMPSEVRSIDGSGNNPNDHLWGSVGQRLIRMAPAAYGDGISTLAGANRPSAREVSNVLSAMNTSQVLNDRGLSAFVYVWGQFIDHDLGLTESDEHGEAIDISVPEGDLWFDPMGSGEAVIPMTRTPIADGTGTSVGNPAQQFNQITAFIDGSMVYGSDAATAERLRTFAGGRLAISDNGLLPMDESGMVIAGDVRASENVGLTAIQTLFVREHNRLADEIFAADPEATDEEIYQRARLVVASLIQSITYNEFLPALLGQRAMDSYRGYDASVNPGIANEFSTAAFRLGHSTLRDEVGFMSNDGRESKDEMELKDAFFHASMLEETGIDSLLKFDASVQAQEIDLAVVDSLRNFLFGPPGAGGLDLVAMNIQRGRDHGLSDYNTTRQAYGLDRVETFDQITGDVELQQKLASLYGTVDNIDLWVGLMAEDHQHDASVGELTGLIIADQFQRTRDGDRFFYKNVLTDSEVESIERSTLADLIERNTSVDGLQENVFFMQVELRGRVILASSIPPNTMPSEVREEEIRGVSGMAIELIDASGKLVDSTVSDQHGNYRFRALSETGDYQVRLSESGEAMDVLVAHGAERIRGLDFIVLALEKREAEAYLPAQQIDVQSSLLSDPSKVAGKTYDYIIAGGGLTGLTVAAKLTENPKIKVLVIEKGFYESNDGAIIEDPNAYGQIFGTTVDQNYLTVPLINNRTNNIKAGKGLGGSTLINGDSWTRPDKVQIDSWEKVFGMEGWNWDNMFEYMKKAEAARTPTAAQLAAGHSFNATCHGTNGTVQSGARDNGQPWSPIMKALMNTVSALGVPVQQDFLCGHPRGVSMIMNNLDENQVRVDAARAWLLPNYQRSNLEILTGQMVGKVLFKQTASGPQAVGVNFGTNKAVNFDVFAKHEVLLAAGSAISPLILEYSGIGLKSVLDQANVTQLLDLPVGINMQDQTTTTVSSRASSAGAGQGQAVFFANFTETFGDYAPQARDLLNTKLDQWAEETVARGGFHNVTALKVQYENYRNWLLDEDVAFAELFMDTEGKINFDLWDLIPFTRGSVHILSSDPYLWQFANDPKFFLNEFDLLGQAAASKLARDLTSQGAMKEYFAGETLPGYNLVQNATLSQWSDYVLQNFRPNWHAVSSCSMMSRELGGVVDATAKVYGTQGLRVIDGSIPPTQVSSHVMTIFYGMALKVADAILDDYAKSA
notes: 6His (in the pET21a vector behind the XhoI site); made in house; host or cells: E. coli BL21Star (DE3)
Work on B1 yielded a Km [1] of 10620 ± 8250 µM, a kcat [1] of 0.000109 s⁻¹ and a kcat/Km [1] of 0.01 ± 0.011 M⁻¹ s⁻¹.

B2: RbMPO-LGKRGAGA-GOx chimera (Rhodopirellula baltica myeloperoxidase, SEQ ID NO: 10; linker SEQ ID NO: 5; Penicillium amagasakiens glucose oxidase, SEQ ID NO: … (protein)
chain: MLFWSKRTRKHPGRKRRRLRSEQLESRQLLAADFGGYRHNIYDAEDVNDDGRVSAIDALLVINAMTSETSRDENVFTDVNGDGRRSALDALRVINRIERGDVFPIDTSGDEDLNTLLPEMPSEVRSIDGSGNNPNDHLWGSVGQRLIRMAPAAYGDGISTLAGANRPSAREVSNVLSAMNTSQVLNDRGLSAFVYVWGQFIDHDLGLTESDEHGEAIDISVPEGDLWFDPMGSGEAVIPMTRTPIADGTGTSVGNPAQQFNQITAFIDGSMVYGSDAATAERLRTFAGGRLAISDNGLLPMDESGMVIAGDVRASENVGLTAIQTLFVREHNRLADEIFAADPEATDEEIYQRARLVVASLIQSITYNEFLPALLGQRAMDSYRGYDASVNPGIANEFSTAAFRLGHSTLRDEVGFMSNDGRESKDEMELKDAFFHASMLEETGIDSLLKFDASVQAQEIDLAVVDSLRNFLFGPPGAGGLDLVAMNIQRGRDHGLSDYNTTRQAYGLDRVETFDQITGDVELQQKLASLYGTVDNIDLWVGLMAEDHQHDASVGELTGLIIADQFQRTRDGDRFFYKNVLTDSEVESIERSTLADLIERNTSVDGLQENVFFMQVELRGRVILASSIPPNTMPSEVREEEIRGVSGMAIELIDASGKLVDSTVSDQHGNYRFRALSETGDYQVRLSESGEAMDVLVAHGAERIRGLDFIVLALGKRGAGAYLPAQQIDVQSSLLSDPSKVAGKTYDYIIAGGGLTGLTVAAKLTENPKIKVLVIEKGFYESNDGAIIEDPNAYGQIFGTTVDQNYLTVPLINNRTNNIKAGKGLGGSTLINGDSWTRPDKVQIDSWEKVFGMEGWNWDNMFEYMKKAEAARTPTAAQLAAGHSFNATCHGTNGTVQSGARDNGQPWSPIMKALMNTVSALGVPVQQDFLCGHPRGVSMIMNNLDENQVRVDAARAWLLPNYQRSNLEILTGQMVGKVLFKQTASGPQAVGVNFGTNKAVNFDVFAKHEVLLAAGSAISPLILEYSGIGLKSVLDQANVTQLLDLPVGINMQDQTTTTVSSRASSAGAGQGQAVFFANFTETFGDYAPQARDLLNTKLDQWAEETVARGGFHNVTALKVQYENYRNWLLDEDVAFAELFMDTEGKINFDLWDLIPFTRGSVHILSSDPYLWQFANDPKFFLNEFDLLGQAAASKLARDLTSQGAMKEYFAGETLPGYNLVQNATLSQWSDYVLQNFRPNWHAVSSCSMMSRELGGVVDATAKVYGTQGLRVIDGSIPPTQVSSHVMTIFYGMALKVADAILDDYAKSA
notes: as for B1
Protein B2 has a Km ([2]; other: dimer/monomer) of 66900 ± 24100 µM, a kcat ([2]; other: dimer/monomer) of 0.00305 s⁻¹ and a kcat/Km ([2]; other: dimer/monomer) of 0.046 ± 0.025 M⁻¹ s⁻¹. The Km ([2]; other: excluded) was 2270 ± 1300 µM, the kcat ([2]; other: excluded) was 0.00133 s⁻¹ and the kcat/Km ([2]; other: excluded) was 0.586 ± 0.384 M⁻¹ s⁻¹. It also gave a Km ([2]; other: trimer) of 2022 ± 644 µM, a kcat ([2]; other: trimer) of 0.0022 s⁻¹ and a kcat/Km ([2]; other: trimer) of 1.09 ± 0.801 M⁻¹ s⁻¹.

B3: RbMPO-LEKREAEALEKREAEA-GOx chimera (Rhodopirellula baltica myeloperoxidase, SEQ ID NO: 10; linker SEQ ID NO: 6; Penicillium amagasakiens glucose oxidase, SEQ … (protein)
chain: MLFWSKRTRKHPGRKRRRLRSEQLESRQLLAADFGGYRHNIYDAEDVNDDGRVSAIDALLVINAMTSETSRDENVFTDVNGDGRRSALDALRVINRIERGDVFPIDTSGDEDLNTLLPEMPSEVRSIDGSGNNPNDHLWGSVGQRLIRMAPAAYGDGISTLAGANRPSAREVSNVLSAMNTSQVLNDRGLSAFVYVWGQFIDHDLGLTESDEHGEAIDISVPEGDLWFDPMGSGEAVIPMTRTPIADGTGTSVGNPAQQFNQITAFIDGSMVYGSDAATAERLRTFAGGRLAISDNGLLPMDESGMVIAGDVRASENVGLTAIQTLFVREHNRLADEIFAADPEATDEEIYQRARLVVASLIQSITYNEFLPALLGQRAMDSYRGYDASVNPGIANEFSTAAFRLGHSTLRDEVGFMSNDGRESKDEMELKDAFFHASMLEETGIDSLLKFDASVQAQEIDLAVVDSLRNFLFGPPGAGGLDLVAMNIQRGRDHGLSDYNTTRQAYGLDRVETFDQITGDVELQQKLASLYGTVDNIDLWVGLMAEDHQHDASVGELTGLIIADQFQRTRDGDRFFYKNVLTDSEVESIERSTLADLIERNTSVDGLQENVFFMQVELRGRVILASSIPPNTMPSEVREEEIRGVSGMAIELIDASGKLVDSTVSDQHGNYRFRALSETGDYQVRLSESGEAMDVLVAHGAERIRGLDFIVLALEKREAEALEKREAEAYLPAQQIDVQSSLLSDPSKVAGKTYDYIIAGGGLTGLTVAAKLTENPKIKVLVIEKGFYESNDGAIIEDPNAYGQIFGTTVDQNYLTVPLINNRTNNIKAGKGLGGSTLINGDSWTRPDKVQIDSWEKVFGMEGWNWDNMFEYMKKAEAARTPTAAQLAAGHSFNATCHGTNGTVQSGARDNGQPWSPIMKALMNTVSALGVPVQQDFLCGHPRGVSMIMNNLDENQVRVDAARAWLLPNYQRSNLEILTGQMVGKVLFKQTASGPQAVGVNFGTNKAVNFDVFAKHEVLLAAGSAISPLILEYSGIGLKSVLDQANVTQLLDLPVGINMQDQTTTTVSSRASSAGAGQGQAVFFANFTETFGDYAPQARDLLNTKLDQWAEETVARGGFHNVTALKVQYENYRNWLLDEDVAFAELFMDTEGKINFDLWDLIPFTRGSVHILSSDPYLWQFANDPKFFLNEFDLLGQAAASKLARDLTSQGAMKEYFAGETLPGYNLVQNATLSQWSDYVLQNFRPNWHAVSSCSMMSRELGGVVDATAKVYGTQGLRVIDGSIPPTQVSSHVMTIFYGMALKVADAILDDYAKSA
notes: as for B1
Protein B3 has a Km ([3]; other: dimer/monomer) of 2020 ± 1070 µM, a Km ([3]; other: excluded) of 14170 ± 4620 µM and a kcat ([3]; other: excluded) of 0.00015 s⁻¹. The kcat/Km ([3]; other: excluded) was 0.01 ± 0.004 M⁻¹ s⁻¹, the Km ([3]; other: trimer) was 770 ± 500 µM and the kcat ([3]; other: trimer) was 0.00137 s⁻¹. The kcat/Km ([3]; other: trimer) was 1.7 ± 1.34 M⁻¹ s⁻¹ and 1.77 M⁻¹ s⁻¹.

B4: RbMPO-GOx chimeras, all other chimeras (Penicillium amagasakiense) (protein)
chain: YLPAQQIDVQSSLLSDPSKVAGKTYDYIIAGGGLTGLTVAAKLTENPKIKVLVIEKGFYESNDGAIIEDPNAYGQIFGTTVDQNYLTVPLINNRTNNIKAGKGLGGSTLINGDSWTRPDKVQIDSWEKVFGMEGWNWDNMFEYMKKAEAARTPTAAQLAAGHSFNATCHGTNGTVQSGARDNGQPWSPIMKALMNTVSALGVPVQQDFLCGHPRGVSMIMNNLDENQVRVDAARAWLLPNYQRSNLEILTGQMVGKVLFKQTASGPQAVGVNFGTNKAVNFDVFAKHEVLLAAGSAISPLILEYSGIGLKSVLDQANVTQLLDLPVGINMQDQTTTTVSSRASSAGAGQGQAVFFANFTETFGDYAPQARDLLNTKLDQWAEETVARGGFHNVTALKVQYENYRNWLLDEDVAFAELFMDTEGKINFDLWDLIPFTRGSVHILSSDPYLWQFANDPKFFLNEFDLLGQAAASKLARDLTSQGAMKEYFAGETLPGYNLVQNATLSQWSDYVLQNFRPNWHAVSSCSMMSRELGGVVDATAKVYGTQGLRVIDGSIPPTQVSSHVMTIFYGMALKVADAILDDYAKSA
notes: pET21a, E. coli; heme and FAD reconstituted; GOx mature part (P81156 19-605)
For B4, the kcat/Km [4] was 1 M⁻¹ s⁻¹.
